# Source: the MegaScale stability set (Tsuboyama et al. 2023)
# B1: EHEE_rd3_0053 (parent)
# chain: TYTFKVDNKDQAKKAAKWAKKLGLSFQIEKHGDTFKITVQ
# Variants of: B1
# Assay: folding stability dG (cDNA display proteolysis); higher = more stable
# Details: PBS, room temperature
row,Variant,folding stability dG [kcal/mol]
1,TYTFKVDNKDQAKEAAKWAKKLGLSFQIEKHGDTFKITVQ [K14E],1.95
2,TYTFKVDNKDQAKTAAKWAKKLGLSFQIEKHGDTFKITVQ [K14T],1.89
3,TYTFKVDNKDQAKKAAKWAKKLGLSHQIEKHGDTFKITVQ [F26H],1.02
4,TYTFKVDNKDQAKKAAKWAKKLGLSGQIEKHGDTFKITVQ [F26G],-0.311
5,TYTFKVDNKDQAKKAAKWAKKLGLSMQIEKHGDTFKITVQ [F26M],2.05
6,TYTFKVDNKDQAKKAAKWAKKLGLSNQIEKHGDTFKITVQ [F26N],-0.442
7,TYTFKVDNKDQAKKAAKWAKKLGLSFQIEKHGDFFKITVQ [T34F],2.79
8,TYTFKVDNKDQAKKAAKWAKKLGLSFQIEKHGDVFKITVQ [T34V],2.71
9,TYTFKVDNKDQAKKAAKWAKFLGLSFQIEKHGDTFKITVQ [K21F],1.98
10,TYTFKVDNKDQAKKAAKWAKDLGLSFQIEKHGDTFKITVQ [K21D],1.89
11,TYTFKVDNKDQAKKAAKWAKALGLSFQIEKHGDTFKITVQ [K21A],2.41
12,TYTFKVDNKDQAKKAAKWAKKLGLSFQIEKHGYTFKITVQ [D33Y],1.8
13,TYTFKVDNKDQAKKAAKWAKKLGLSFQIEKHGVTFKITVQ [D33V],1.95
14,TYTFKVDNKDQAKKAAKWAKKLGLSFQIEKHGQTFKITVQ [D33Q],2.16
15,TYTFKVDNKDQAKKAAKWAKKLGLSFQIEKHGGTFKITVQ [D33G],2.23
16,TYTFKVDNKDQAKKAAKWAKKLGLSFQIEKHGETFKITVQ [D33E],2.38
17,TYTFKVDNKDQAKKAAKWAKKLGLSFQIEKHGTTFKITVQ [D33T],2.37
18,TYTFKVDNKDQAKKAAKWAKKLGLGFQIEKHGDTFKITVQ [S25G],1.89
19,TYTFKVDNKDQAKKAAKWAKKLGLDFQIEKHGDTFKITVQ [S25D],2.18
20,TYTFKVDNKDQAKKAAKWAKKLGLNFQIEKHGDTFKITVQ [S25N],2.36
21,TYTFKVDNKDQAKKAAKWAKKLGLEFQIEKHGDTFKITVQ [S25E],2.21
22,TYTFKVDNGDQAKKAAKWAKKLGLSFQIEKHGDTFKITVQ [K9G],1.9
23,TYTFKVDNKDQAKKAAKKAKKLGLSFQIEKHGDTFKITVQ [W18K],1.45
24,TYTFKVDNKDQAKKAAKGAKKLGLSFQIEKHGDTFKITVQ [W18G],0.349
25,TYTFKVDNKDQAKKAAKIAKKLGLSFQIEKHGDTFKITVQ [W18I],1.72

row,Variant,folding stability dG [kcal/mol]
1,TYTFKVCNKDQAKKAAKWAKKLGLSFQIEKHGDTFKITVQ [D7C],3.29
2,TYTFKVLNKDQAKKAAKWAKKLGLSFQIEKHGDTFKITVQ [D7L],2.4
3,TYTFKVENKDQAKKAAKWAKKLGLSFQIEKHGDTFKITVQ [D7E],2.37
4,TYTFKVRNKDQAKKAAKWAKKLGLSFQIEKHGDTFKITVQ [D7R],2.68
5,TYTFKVDNKDQAKKAAKWAKKLGLSFQIEKHGDTFEITVQ [K36E],2.45
6,TYTFKVDNKDQAKKAAKWAKKLGLSFQIEKHGDTFFITVQ [K36F],3.18
7,TYTFKVDNKDQAKKAAKWAKKLGLSFQIEKHGDTFRITVQ [K36R],2.53
8,TYTFKVDNKDQAKKAAKWAKKLGLSFQIEKHGDTFGITVQ [K36G],1
9,TYTFKVDNKDQAKKSAKWAKKLGLSFQIEKHGDTFKITVQ [A15S],1.26
10,TYTFKVDNKDQAKKLAKWAKKLGLSFQIEKHGDTFKITVQ [A15L],2.82
11,TYTFKVDNKDQAKKNAKWAKKLGLSFQIEKHGDTFKITVQ [A15N],0.377
12,TYTFKVDNKDQAKKAAKWAKKLGLSFQQEKHGDTFKITVQ [I28Q],0.977
13,TYTFKVDNKDQAKKAAKWAKKLGLSFQIEKHGDTFKITDQ [V39D],-0.839
14,TYTFKVDNKDQAKKAAKWAKKLGLSFQIEKHGDTFKITPQ [V39P],-0.963
15,TYTFKVDNKDQAKKAAKWAKKLGLSFQIEKHGDTFKITTQ [V39T],0.975
16,TYTFKTDNKDQAKKAAKWAKKLGLSFQIEKHGDTFKITVQ [V6T],2.1
17,TYTFKNDNKDQAKKAAKWAKKLGLSFQIEKHGDTFKITVQ [V6N],-0.311
18,TYTFKYDNKDQAKKAAKWAKKLGLSFQIEKHGDTFKITVQ [V6Y],1.92
19,TYTFKDDNKDQAKKAAKWAKKLGLSFQIEKHGDTFKITVQ [V6D],-0.058
20,TYTFKVDNKDQAKKAAKWAKKMGLSFQIEKHGDTFKITVQ [L22M],2.54
21,TYTFKVDNKDQAKKAAKWAKKKGLSFQIEKHGDTFKITVQ [L22K],2.44
22,TYTFKVDNKDQAKKAAKWAKKHGLSFQIEKHGDTFKITVQ [L22H],2.6
23,TYTFKVDNKDQAKKAAKWAKKGGLSFQIEKHGDTFKITVQ [L22G],0.897
24,TYTFYVDNKDQAKKAAKWAKKLGLSFQIEKHGDTFKITVQ [K5Y],3.89
25,TYTFIVDNKDQAKKAAKWAKKLGLSFQIEKHGDTFKITVQ [K5I],3.47

row,Variant,folding stability dG [kcal/mol]
1,TYTFAVDNKDQAKKAAKWAKKLGLSFQIEKHGDTFKITVQ [K5A],2.54
2,TYTFKVDNKDQAHKAAKWAKKLGLSFQIEKHGDTFKITVQ [K13H],2.07
3,TYTFKVDNKDQAMKAAKWAKKLGLSFQIEKHGDTFKITVQ [K13M],2.55
4,TYTFKVDNKDCAKKAAKWAKKLGLSFQIEKHGDTFKITVQ [Q11C],3.05
5,TYTFKVDNKDWAKKAAKWAKKLGLSFQIEKHGDTFKITVQ [Q11W],1.79
6,TYTFKVDNKDEAKKAAKWAKKLGLSFQIEKHGDTFKITVQ [Q11E],2.3
7,TYTFKVDNKDDAKKAAKWAKKLGLSFQIEKHGDTFKITVQ [Q11D],2.39
8,TYTFKVDNKDPAKKAAKWAKKLGLSFQIEKHGDTFKITVQ [Q11P],0.025
9,TYTFKVDNKDFAKKAAKWAKKLGLSFQIEKHGDTFKITVQ [Q11F],1.85
10,TYTFKVDNKDQAKKAAKWAKKLGLSFQIEKHGDTFKYTVQ [I37Y],0.365
11,IYTFKVDNKDQAKKAAKWAKKLGLSFQIEKHGDTFKITVQ [T1I],2.51
12,DYTFKVDNKDQAKKAAKWAKKLGLSFQIEKHGDTFKITVQ [T1D],1.93
13,AYTFKVDNKDQAKKAAKWAKKLGLSFQIEKHGDTFKITVQ [T1A],2.38
14,RYTFKVDNKDQAKKAAKWAKKLGLSFQIEKHGDTFKITVQ [T1R],2.45
15,SYTFKVDNKDQAKKAAKWAKKLGLSFQIEKHGDTFKITVQ [T1S],2.62
16,TYTFKVDNKDQAKKAAKWAKKLGGSFQIEKHGDTFKITVQ [L24G],0.159
17,TYTFKVDNKDQAKKAAKWAKKLGFSFQIEKHGDTFKITVQ [L24F],2.2
18,TYTFKVDNKDQAKKAAKWAKKLGSSFQIEKHGDTFKITVQ [L24S],0.343
19,TYTFKVDNKDQAKKAAKWAKKLGLSFQIEKHGDTFKITVG [Q40G],2.55
20,TYTFKVDNKDQAKKAAKWAKKLGLSFQIEKHGDTFKITVD [Q40D],1.98
21,TYTFKVDNKDQAKKAAKWAKKLGLSFQIEKHGDTFKITVT [Q40T],2.62
22,TYTFKVDNKDQAKKAAKWAKKLGLSFQIEKHGDTFKITVC [Q40C],2.75
23,TKTFKVDNKDQAKKAAKWAKKLGLSFQIEKHGDTFKITVQ [Y2K],1.59
24,TLTFKVDNKDQAKKAAKWAKKLGLSFQIEKHGDTFKITVQ [Y2L],2.25
25,TYTFKVDNKDQAKKARKWAKKLGLSFQIEKHGDTFKITVQ [A16R],2.56

row,Variant,folding stability dG [kcal/mol]
1,TYTFKVDNKDQAKKAVKWAKKLGLSFQIEKHGDTFKITVQ [A16V],2.47
2,TYTFKVDNKIQAKKAAKWAKKLGLSFQIEKHGDTFKITVQ [D10I],2.62
3,TYTFKVDNKEQAKKAAKWAKKLGLSFQIEKHGDTFKITVQ [D10E],2.73
4,TYTFKVDNKWQAKKAAKWAKKLGLSFQIEKHGDTFKITVQ [D10W],2.98
5,TYTFKVDNKSQAKKAAKWAKKLGLSFQIEKHGDTFKITVQ [D10S],2.71
6,TYTFKVDNKDQMKKAAKWAKKLGLSFQIEKHGDTFKITVQ [A12M],2.25
7,TYTFKVDNKDQNKKAAKWAKKLGLSFQIEKHGDTFKITVQ [A12N],-0.078
8,TYTFKVDNKDQAKKAAKWAKKLGLSFQIEKHQDTFKITVQ [G32Q],1.76
9,TYTFKVDNKDQAKKAAKWAKKLGLSFQIEKHVDTFKITVQ [G32V],1.19
10,TYTFKVDNKDQAKKAAKWAKKLGLSFQIEKHTDTFKITVQ [G32T],0.996
11,TYTFKVDNKDQAKKAAKWAKKLGLSFQIEKHSDTFKITVQ [G32S],1.31
12,TYTFKVDNKDQAKKAAKWAKKLGLSFQIEKHHDTFKITVQ [G32H],1.61
13,TYTFKVDNKDQAKKAAKWAKKLGLSFQIEKHLDTFKITVQ [G32L],1.7
14,TYTFKVDWKDQAKKAAKWAKKLGLSFQIEKHGDTFKITVQ [N8W],1.24
15,TYTFKVDMKDQAKKAAKWAKKLGLSFQIEKHGDTFKITVQ [N8M],1.15
16,TYTFKVDSKDQAKKAAKWAKKLGLSFQIEKHGDTFKITVQ [N8S],2.56
17,TYTFKVDHKDQAKKAAKWAKKLGLSFQIEKHGDTFKITVQ [N8H],1.73
18,TYTFKVDVKDQAKKAAKWAKKLGLSFQIEKHGDTFKITVQ [N8V],0.955
19,TYTFKVDNKDQAKKAAKWAKKLGLSFQIEIHGDTFKITVQ [K30I],2.15
20,TYTFKVDNKDQAKKAAKWAKKLGLSFQIEYHGDTFKITVQ [K30Y],1.92
21,TYTFKVDNKDQAKKAAKWAKKLGLSFQIEGHGDTFKITVQ [K30G],1.57
22,TYAFKVDNKDQAKKAAKWAKKLGLSFQIEKHGDTFKITVQ [T3A],1.79
23,TYYFKVDNKDQAKKAAKWAKKLGLSFQIEKHGDTFKITVQ [T3Y],2.27
24,TYEFKVDNKDQAKKAAKWAKKLGLSFQIEKHGDTFKITVQ [T3E],2.15
25,TYWFKVDNKDQAKKAAKWAKKLGLSFQIEKHGDTFKITVQ [T3W],2.67

row,Variant,folding stability dG [kcal/mol]
1,TYTFKVDNKDQAKKAAKWAKKLGLSFTIEKHGDTFKITVQ [Q27T],2.71
2,TYTFKVDNKDQAKKAAKWAKKLGLSFSIEKHGDTFKITVQ [Q27S],2.61
3,TYTFKVDNKDQAKKAADWAKKLGLSFQIEKHGDTFKITVQ [K17D],2.16
4,TYTFKVDNKDQAKKAAPWAKKLGLSFQIEKHGDTFKITVQ [K17P],-0.379
5,TYTFKVDNKDQAKKAAYWAKKLGLSFQIEKHGDTFKITVQ [K17Y],2.34
6,TYTFKVDNKDQAKKAAKWAKKLQLSFQIEKHGDTFKITVQ [G23Q],1.52
7,TYTFKVDNKDQAKKAAKWAKKLDLSFQIEKHGDTFKITVQ [G23D],1.02
8,TYTFKVDNKDQAKKAAKWAKKLCLSFQIEKHGDTFKITVQ [G23C],1.62
9,TYTFKVDNKDQAKKAAKWAKKLILSFQIEKHGDTFKITVQ [G23I],0.784
10,TYTFKVDNKDQAKKAAKWAKKLNLSFQIEKHGDTFKITVQ [G23N],1.97
11,TYTFKVDNKDQAKKAAKWAKKLGLSFQIKKHGDTFKITVQ [E29K],2.07
12,TYTFKVDNKDQAKKAAKWAKKLGLSFQICKHGDTFKITVQ [E29C],2.64
13,TYTFKVDNKDQAKKAAKWAKKLGLSFQIHKHGDTFKITVQ [E29H],2.01
14,TYTFKVDNKDQAKKAAKWPKKLGLSFQIEKHGDTFKITVQ [A19P],-0.671
15,TYTFKVDNKDQAKKAAKWVKKLGLSFQIEKHGDTFKITVQ [A19V],1.47
16,TYTFKVDNKDQAKKAAKWFKKLGLSFQIEKHGDTFKITVQ [A19F],2.84
17,TYTFKVDNKDQAKKAAKWEKKLGLSFQIEKHGDTFKITVQ [A19E],-0.425
18,TYTFKVDNKDQAKKAAKWRKKLGLSFQIEKHGDTFKITVQ [A19R],-0.112
19,TYTFKVDNKDQAKKAAKWAIKLGLSFQIEKHGDTFKITVQ [K20I],2.24
20,TYTFKVDNKDQAKKAAKWADKLGLSFQIEKHGDTFKITVQ [K20D],1.48
21,TYTFKVDNKDQAKKAAKWAQKLGLSFQIEKHGDTFKITVQ [K20Q],2.3
22,TYTFKVDNKDQAKKAAKWALKLGLSFQIEKHGDTFKITVQ [K20L],2.28
23,TYTFKVDNKDQAKKAAKWAKKLGLSFQIEKHGDTLKITVQ [F35L],1.49
24,TYTPKVDNKDQAKKAAKWAKKLGLSFQIEKHGDTFKITVQ [F4P],0.467
25,TYTGKVDNKDQAKKAAKWAKKLGLSFQIEKHGDTFKITVQ [F4G],0.271
